# Experimental data from paper PMC8715211.
# Molecular target: HIV-1 matrix MA1-131 (HIV-1, UniProt C1JB69 2-132)
# Experiment: ITC
binder,measurement,value
"human tRNALys3, in vitro transcribed (structured_RNA, unmodified transcript) RNA: GCCCGGAUAGCUCAGUCGGUAGAGCAUCAGACUUUUAAUCUGAGGGUCCAGGGUUCAAGUCCCUGUUCGGGCGCCA",Kd,270 ± 20 nM
